The target of the test is receptor for UNQ733 on the surface of lymphoma cell lines and B cells (unidentified) (human). The test is described as follows: flow cytometry on purified human peripheral blood B cells, 48 h with anti-CD40 and rIL-4.

In turn, His8-tagged UNQ733 polypeptide (ligand) displayed a fold increase of binding on B cells stimulated with anti-CD40 and IL-4 against resting B cells of 2 to 5 fold.

Values taken from US20090054631A1.
